For assay [1], the target named is T1, class I granulocyte colony-stimulating factor receptor (canonical, full-length isoform) (human, UniProt Q99062 25-836).
T1 sequence (looked up): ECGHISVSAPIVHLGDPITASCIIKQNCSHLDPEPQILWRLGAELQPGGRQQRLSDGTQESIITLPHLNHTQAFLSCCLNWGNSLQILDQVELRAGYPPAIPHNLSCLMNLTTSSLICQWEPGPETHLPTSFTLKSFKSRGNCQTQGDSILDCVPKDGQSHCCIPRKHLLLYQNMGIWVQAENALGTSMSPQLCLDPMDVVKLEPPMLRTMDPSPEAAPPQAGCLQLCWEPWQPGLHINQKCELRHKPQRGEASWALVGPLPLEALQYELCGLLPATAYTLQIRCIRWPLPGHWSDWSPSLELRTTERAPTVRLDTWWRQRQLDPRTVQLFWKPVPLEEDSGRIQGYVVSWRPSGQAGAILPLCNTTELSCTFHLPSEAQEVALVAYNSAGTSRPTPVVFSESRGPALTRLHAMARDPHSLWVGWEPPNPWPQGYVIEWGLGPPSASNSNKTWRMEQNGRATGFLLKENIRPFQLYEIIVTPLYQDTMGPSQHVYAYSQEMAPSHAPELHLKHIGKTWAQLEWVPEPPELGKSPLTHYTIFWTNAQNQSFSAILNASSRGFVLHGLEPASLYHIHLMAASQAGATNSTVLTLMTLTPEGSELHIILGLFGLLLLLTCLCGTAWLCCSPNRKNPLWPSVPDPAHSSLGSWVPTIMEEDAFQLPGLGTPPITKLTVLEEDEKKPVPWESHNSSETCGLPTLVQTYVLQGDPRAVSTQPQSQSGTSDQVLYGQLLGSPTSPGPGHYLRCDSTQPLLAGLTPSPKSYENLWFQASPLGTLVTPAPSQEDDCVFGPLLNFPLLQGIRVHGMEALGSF
Put plainly: radioligand binding.

For assay [2], the target named is T2, class IV granulocyte colony-stimulating factor receptor (alternatively spliced, truncated isoform) (human, UniProt Q99062-4 25-783).
T2 sequence (looked up): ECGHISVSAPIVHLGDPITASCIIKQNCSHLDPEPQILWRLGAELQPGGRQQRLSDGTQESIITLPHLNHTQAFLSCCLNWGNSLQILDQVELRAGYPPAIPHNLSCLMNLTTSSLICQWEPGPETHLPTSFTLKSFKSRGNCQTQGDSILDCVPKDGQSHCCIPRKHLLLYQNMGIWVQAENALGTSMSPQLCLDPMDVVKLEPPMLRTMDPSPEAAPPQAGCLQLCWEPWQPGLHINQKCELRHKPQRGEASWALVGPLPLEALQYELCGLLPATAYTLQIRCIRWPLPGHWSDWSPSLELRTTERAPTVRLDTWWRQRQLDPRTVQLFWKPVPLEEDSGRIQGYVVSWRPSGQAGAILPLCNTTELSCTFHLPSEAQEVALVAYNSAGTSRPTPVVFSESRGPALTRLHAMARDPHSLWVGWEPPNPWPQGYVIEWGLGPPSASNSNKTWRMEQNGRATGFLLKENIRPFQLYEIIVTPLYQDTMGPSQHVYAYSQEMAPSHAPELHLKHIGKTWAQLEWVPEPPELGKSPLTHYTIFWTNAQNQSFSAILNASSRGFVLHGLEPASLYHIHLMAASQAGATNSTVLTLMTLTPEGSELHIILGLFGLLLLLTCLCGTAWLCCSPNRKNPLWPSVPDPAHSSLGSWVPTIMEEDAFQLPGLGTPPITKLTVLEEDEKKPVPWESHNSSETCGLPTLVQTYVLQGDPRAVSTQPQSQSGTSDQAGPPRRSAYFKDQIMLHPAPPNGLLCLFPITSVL
The assay can be described thus: radioligand binding.

B1: human granulocyte colony-stimulating factor (ligand, UniProt P09919 31-207, looked up)
chain: TPLGPASSLPQSFLLKCLEQVRKIQGDGAALQEKLVSECATYKLCHPEELVLLGHSLGIPWAPLSSCPSQALQLAGCLSQLHSGLFLYQGLLQALEGISPELGPTLDTLQLDVADFATTIWQQMEELGMAPALQPTQGAMPAFASAFQRRAGGVLVASHLQSFLEVSYRVLRHLAQP
modifications: 125I Bolton-Hunter reagent label (site not stated)
For the molecule B1, the dissociation constant Kd – broadly, a measure of binding affinity in units of concentration – is 0.58 nM in assay [1] and 0.53 nM in assay [2].

For the origin of these results see article PMC5875430 (Leukemia, 2013).
